B1: NLV3 TCR beta chain (CDR3β only) (parent)
chain: ASSPTGGSPSPLH

Variants of: B1
Assay: T-Switch: Jurkat TCRβ−/− cells expressing a CDR3 saturation-mutagenesis library, stained with two peptide-HLA-A*02:01 tetramers (original and novel peptide) plus anti-CD3, FACS-sorted into four gates, gDNA sequenced
Details: tetramers 1 µg/mL, 30 min on ice, SP, DP and SW gates expanded about 10 days between rounds ('two to three rounds of selection' in the Methods), unresolved parent, parent is a CDR3 fragment, scale: fold enrichment, numbering: sequential-on-construct, sequence starts at 1
[1] = with both tetramers (double-negative gate, binds neither): HLA-A*02:01 with … and with …, gate DN: OPPOSITE: higher = more of the variant in the gate that binds neither peptide = LESS binding (or no expression; inferred). Fold enrichment of the CDR3 variant in one FACS gate of a two-tetram
[2] = with both tetramers (double-positive gate): HLA-A*02:01 with … and with …, gate DP: higher = more of the variant in the gate that binds both peptides. Fold enrichment of the CDR3 variant in one FACS gate of a two-tetramer stain. SP/DP/SW gates were expanded and re-sorted bef

Variant | enrichment [1] | enrichment [2]
[…] (CDR3 as printed); S2G derived by comparing it with the table's wild-type CDR3 ASSPTGGSPSPLH | 0.981 | 0
[…] (CDR3 as printed); S10W derived by comparing it with the table's wild-type CDR3 ASSPTGGSPSPLH | 1.12 | 0
[…] (CDR3 as printed); S2A derived by comparing it with the table's wild-type CDR3 ASSPTGGSPSPLH | 0.536 | 0
[…] (CDR3 as printed); S3Q derived by comparing it with the table's wild-type CDR3 ASSPTGGSPSPLH | 1.09 | 0
[…] (CDR3 as printed); S3Y derived by comparing it with the table's wild-type CDR3 ASSPTGGSPSPLH | 0.895 | 0
[…] (CDR3 as printed); S3A derived by comparing it with the table's wild-type CDR3 ASSPTGGSPSPLH | 0.616 | 0
[…] (CDR3 as printed); P9L derived by comparing it with the table's wild-type CDR3 ASSPTGGSPSPLH | 1.2 | 0
[…] (CDR3 as printed); S8E derived by comparing it with the table's wild-type CDR3 ASSPTGGSPSPLH | 1.16 | 0
[…] (CDR3 as printed); P11W derived by comparing it with the table's wild-type CDR3 ASSPTGGSPSPLH | 0.701 | 0
[…] (CDR3 as printed); T5E derived by comparing it with the table's wild-type CDR3 ASSPTGGSPSPLH | 0.994 | 0
[…] (CDR3 as printed); S3H derived by comparing it with the table's wild-type CDR3 ASSPTGGSPSPLH | 0.931 | 0
[…] (CDR3 as printed); S2I derived by comparing it with the table's wild-type CDR3 ASSPTGGSPSPLH | 0.694 | 0
[…] (CDR3 as printed); T5L derived by comparing it with the table's wild-type CDR3 ASSPTGGSPSPLH | 0.514 | 0
[…] (CDR3 as printed); T5P derived by comparing it with the table's wild-type CDR3 ASSPTGGSPSPLH | 1.04 | 0
[…] (CDR3 as printed); P9M derived by comparing it with the table's wild-type CDR3 ASSPTGGSPSPLH | 1.18 | 0
[…] (CDR3 as printed); S8Q derived by comparing it with the table's wild-type CDR3 ASSPTGGSPSPLH | 0.893 | 0
[…] (CDR3 as printed); T5H derived by comparing it with the table's wild-type CDR3 ASSPTGGSPSPLH | 0.879 | 0
[…] (CDR3 as printed); S10I derived by comparing it with the table's wild-type CDR3 ASSPTGGSPSPLH | 0.982 | 0
[…] (CDR3 as printed); S2V derived by comparing it with the table's wild-type CDR3 ASSPTGGSPSPLH | 0.992 | 0
[…] (CDR3 as printed); S8K derived by comparing it with the table's wild-type CDR3 ASSPTGGSPSPLH | 0.743 | 0

Variant | enrichment [1] | enrichment [2]
[…] (CDR3 as printed); S10P derived by comparing it with the table's wild-type CDR3 ASSPTGGSPSPLH | 1.37 | 0
[…] (CDR3 as printed); P11N derived by comparing it with the table's wild-type CDR3 ASSPTGGSPSPLH | 1.51 | 0
[…] (CDR3 as printed); S10F derived by comparing it with the table's wild-type CDR3 ASSPTGGSPSPLH | 1.25 | 0
[…] (CDR3 as printed); S8H derived by comparing it with the table's wild-type CDR3 ASSPTGGSPSPLH | 0.901 | 0
[…] (CDR3 as printed); P11R derived by comparing it with the table's wild-type CDR3 ASSPTGGSPSPLH | 0.579 | 0
[…] (CDR3 as printed); S2Y derived by comparing it with the table's wild-type CDR3 ASSPTGGSPSPLH | 0.769 | 0
[…] (CDR3 as printed); S8T derived by comparing it with the table's wild-type CDR3 ASSPTGGSPSPLH | 1.42 | 0
[…] (CDR3 as printed); S10A derived by comparing it with the table's wild-type CDR3 ASSPTGGSPSPLH | 0.624 | 0
[…] (CDR3 as printed); S2Q derived by comparing it with the table's wild-type CDR3 ASSPTGGSPSPLH | 0.653 | 0
[…] (CDR3 as printed); T5K derived by comparing it with the table's wild-type CDR3 ASSPTGGSPSPLH | 0.965 | 0
[…] (CDR3 as printed); S3E derived by comparing it with the table's wild-type CDR3 ASSPTGGSPSPLH | 0.814 | 0
[…] (CDR3 as printed); P9V derived by comparing it with the table's wild-type CDR3 ASSPTGGSPSPLH | 0.664 | 0
[…] (CDR3 as printed); S10H derived by comparing it with the table's wild-type CDR3 ASSPTGGSPSPLH | 0.949 | 0
[…] (CDR3 as printed); S3P derived by comparing it with the table's wild-type CDR3 ASSPTGGSPSPLH | 0.64 | 0
[…] (CDR3 as printed); P9T derived by comparing it with the table's wild-type CDR3 ASSPTGGSPSPLH | 1.11 | 0
[…] (CDR3 as printed); P11L derived by comparing it with the table's wild-type CDR3 ASSPTGGSPSPLH | 0.702 | 0
[…] (CDR3 as printed); P11F derived by comparing it with the table's wild-type CDR3 ASSPTGGSPSPLH | 0.728 | 0
[…] (CDR3 as printed); P9Q derived by comparing it with the table's wild-type CDR3 ASSPTGGSPSPLH | 0.777 | 0
[…] (CDR3 as printed); P11V derived by comparing it with the table's wild-type CDR3 ASSPTGGSPSPLH | 1.05 | 0
[…] (CDR3 as printed); P11K derived by comparing it with the table's wild-type CDR3 ASSPTGGSPSPLH | 0.634 | 0

Variant | enrichment [1] | enrichment [2]
[…] (CDR3 as printed); S3I derived by comparing it with the table's wild-type CDR3 ASSPTGGSPSPLH | 1.21 | 0
[…] (CDR3 as printed); P9I derived by comparing it with the table's wild-type CDR3 ASSPTGGSPSPLH | 1.11 | 0
[…] (CDR3 as printed); S10G derived by comparing it with the table's wild-type CDR3 ASSPTGGSPSPLH | 0.33 | 0
[…] (CDR3 as printed); P11T derived by comparing it with the table's wild-type CDR3 ASSPTGGSPSPLH | 1.19 | 0
[…] (CDR3 as printed); S8N derived by comparing it with the table's wild-type CDR3 ASSPTGGSPSPLH | 1.07 | 0
[…] (CDR3 as printed); S3V derived by comparing it with the table's wild-type CDR3 ASSPTGGSPSPLH | 0.951 | 0
[…] (CDR3 as printed); S8C derived by comparing it with the table's wild-type CDR3 ASSPTGGSPSPLH | 0.677 | 0
[…] (CDR3 as printed); S3C derived by comparing it with the table's wild-type CDR3 ASSPTGGSPSPLH | 0.656 | 0
[…] (CDR3 as printed); P9R derived by comparing it with the table's wild-type CDR3 ASSPTGGSPSPLH | 1.13 | 0
[…] (CDR3 as printed); P9N derived by comparing it with the table's wild-type CDR3 ASSPTGGSPSPLH | 1.65 | 0
[…] (CDR3 as printed); S8I derived by comparing it with the table's wild-type CDR3 ASSPTGGSPSPLH | 1.23 | 0
[…] (CDR3 as printed); S3D derived by comparing it with the table's wild-type CDR3 ASSPTGGSPSPLH | 0.675 | 0
[…] (CDR3 as printed); S8Y derived by comparing it with the table's wild-type CDR3 ASSPTGGSPSPLH | 0.351 | 0
[…] (CDR3 as printed); P11E derived by comparing it with the table's wild-type CDR3 ASSPTGGSPSPLH | 0.639 | 0
[…] (CDR3 as printed); T5N derived by comparing it with the table's wild-type CDR3 ASSPTGGSPSPLH | 0.924 | 0
[…] (CDR3 as printed); S8R derived by comparing it with the table's wild-type CDR3 ASSPTGGSPSPLH | 0.977 | 0
[…] (CDR3 as printed); S8A derived by comparing it with the table's wild-type CDR3 ASSPTGGSPSPLH | 0.6 | 0
[…] (CDR3 as printed); P11C derived by comparing it with the table's wild-type CDR3 ASSPTGGSPSPLH | 0.758 | 0
